# Experiments:
# [1] = test system: N[C@@H](CS)C(=O)O; experiment: HPLC-based steady-state kinetics; assay type: biochemical, Staphylococcus aureus; settings: […] Mn2+; fosfomycin ([…])
# [2] = biological target: SaFosB (Staphylococcus aureus, UniProt Q5HDM4); experiment: HPLC-based enzyme inhibition kinetics, purified enzyme; assay type: biochemical
# SaFosB, sequence (Q5HDM4 whole entry): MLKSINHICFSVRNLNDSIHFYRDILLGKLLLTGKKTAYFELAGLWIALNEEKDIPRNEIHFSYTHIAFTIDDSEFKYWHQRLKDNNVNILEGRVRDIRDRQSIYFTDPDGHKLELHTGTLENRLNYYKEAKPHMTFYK
Compound,Km [1],kcat [1],kcat/Km [1],Ki [2]
SaFosB (Staphylococcus aureus subsp. aureus COL),13 mM,2.3 ± 0.2 s⁻¹,175 ± 44 M⁻¹ s⁻¹,–
N[C@@H](CO)C(=O)N[C@H]1[C@@H](O[C@@H](CC(=O)O)C(=O)O)O[C@H](CO)[C@@H](O)[C@@H]1O [BOH],–,–,–,3.9 mM

# From paper PMC3960972 (The Biochemical journal, 2013)
